# Measurements as given in patent publication US20190352664A1, “COMPOSITIONS AND METHODS FOR CONTROLLING GENE EXPRESSION” (priority 2017, published 2019).
# B1: AT3G03070.1: 5′ UTR of transcript; NADH-ubiquinone oxidoreductase-related (nucleic acid)
# DNA: AAATAAATGCGTTGTTTGGTACAGCTTCACGAACAATCTCTCTCTCGATAGATTCTTCTTACCTCTGAATTTCTCGTTGTTGGAACA
# modifications: listed as DNA, chemistry not fully specified
# notes: 5′ UTR of transcript; NADH-ubiquinone oxidoreductase-related
# B2: AT2G35510.1_1: uORF of AT2G35510.1; peptide SEQ ID NO: 11 (nucleic acid)
# DNA: ATGGCTCGTCTTTTTCCAAACGATTTCTTCTTCTTCGTCGTCGCCGGTTTAGGGTTTCCGTTGCTGTAG
# modifications: listed as DNA, chemistry not fully specified
# B3: AT2G35510.1: 5′ UTR of transcript; similar to RCD one 1 (nucleic acid)
# DNA: CAAGAGTAGACCGCCGACTTAGATTTTTTCGCCGACGAGAGAATATATATAAATGGCTCGTCTTTTTCCAAACGATTTCTTCTTCTTCGTCGTCGCCGGTTTAGGGTTTCCGTTGCTGTAGCAATTTTCTCTCGCTTCTCTCTCCCCTTTTACAGTTTCTCTTATATTGCTCTTGCCTTGCGTCCAATCTCAAGAGTTCATAAGAGTTGACATTTGTGAACATCGAAGAAATACGGTGACGTTTCTTCTCTGATTACTTTTTGCCAACATGAATACTAATGTATTTATCAACAAGTGCTACAGCCTGTTTTTTTCGAAGCTGTTGGTGAGTTCCCATCCTTAGTACTGCTAGACAGTTCGGTGTGTTAGTTGACTTTATATTCAAGGTTATAGGTTTAGTGTTGTTAGTAGAGAAAA
# B4: AT2G47210.1: 5′ UTR of transcript; myb-like transcription factor family protein (nucleic acid)
# DNA: AAACTGCTGACCGATCCCAAAGGTTGAAAGATTCTTTGGCGCTAAAAAATCCCCAGTTCCCAAATCGGCGTCCTCGTTTGAAACCCTAATTCCTGAATCGAAGCAGATCCTGATCGAATCGAAGGTGTTCGAATGATAGCTACCCAGTAAATTCAGAACCCTAATTAACA
# B5: AT2G42950.1: 5′ UTR of transcript; Magnesium transporter CorA-like family protein (nucleic acid)
# DNA: ACATTCATCTCTCTCTCTCAGTCAAATTGTTGTTTTCTTTCTTCGAATCGGTGCAGAAAATTCAGGGAAGTTCTGGGGAAGGTTGTTGCGTTTGACTCCTTTGGCTTAGTTTTCTTTCGAATTCCGTGCTTCCTGATGATCTTACGTGAAATTGCAGCCTAAAATTTCGAGATTGTTTTTTTTACTCAGAAAACGAGATTTGACTGATATGAATCGAAAATCTGTGATTTAAAGTGAAGC
# B6: AT2G34630.1: 5′ UTR of transcript; geranyl diphosphate synthase 1 (nucleic acid)
# DNA: AAGCGAACAAGTCTTTGCCTCTTTGGTTTACTTTCCTCTGTTTTCGATCCATTTAGAAAATGTTATTCACGAGGAGTGTTGCTCGGATTTCTTCTAAGTTTCTGAGAAACCGTAGCTTCTATGGCTCCTCTCAATCTCTCGCCTCTCATCGGTTCGCAATCATTCCCGATCAGGGTCACTCTTGTTCTGACTCTCCACACAAGTAGGGTTACGTTTGCAGAACAACTTATTCATTGAAATCTCCGGTTTTTGGTGGATTTAGTCATCAACTCTATCACCAGAGTAGCTCCTTGGTTGAGGAGGAGCTTGACCCATTTTCGCTTGTTGCCGATGAGCTGTCACTTCTTAGTAATAAGTTGAGAGAG
# System: Arabidopsis
# Experiment: Ribo-seq and RNA-seq global translatome profiling (translational efficiency TE, mORF/uORF ribo-shift) upon elf18 treatment
# Assay type: in vivo
# Set-up: key to score (Ribo-shift): Up: ribo-shift up (i.e., increased mORF/uORF ratio); Down: ribo-shift down (i.e., decreased mORF/uORF ratio)
# Settings: elf18 vs Mock; for score (TE change): translational efficiency fold change, listed as shows 5′ UTR of the transcript
Molecule,score (TE change),"score (Ribo-shift) (shift of mORF/uORF ratio, per uORF)"
B1,TEdown (389 genes displayed decreased TEfc (|z|≥1.5)),
B2,,Up
B3,TEup (448 had increased TEfc),
B4,TEdown (389 genes displayed decreased TEfc (|z|≥1.5)),
B5,TEdown (389 genes displayed decreased TEfc (|z|≥1.5)),
B6,TEup (448 had increased TEfc),
